From the RNAGym collection of RNA variant scans (doi:10.1073/pnas.2313332121)

B1: TPR t1 (parent)
chain: GACCAAUCUGCCCUCAGAGCUCGAGAACAUCUUCGGAUGCAGAGGAGGCAGGCUUCGGUGGCGCGAUAGCGCCAACGUCCUCAACCUCCAAUGCAUCCCACCACAUGAUGAUGCCUGAAGAGCCUUGGUUUUUUG

Variants of: B1
Assay: polymerase ribozyme fitness, log enrichment relative to wild type (log ratio); higher = more active; in vitro selection for triplet polymerase activity
Method in brief: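 Libraries of mutants in each subunit of a heterodimeric triplet polymerase ribozyme were generated by PCR and transcribed. In triplicate, each went through one in vitro selection round: annealing with biotinylated primer, partner subunit and triplets; frozen incubation at −7 °C; gel excision of extended constructs; streptavidin-bead capture; RT-PCR. Fitness, taken from Illumina sequencing of input and output libraries, is the logarithm of a genotype's enrichment over wild-type enrichment, averaged across replicates with inverse-variance weights. The logarithm is base 2, and genotypes needed ≥10 input reads and ≥1 read per output to be kept.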

Variant	polymerase ribozyme fitness (log ratio)
G39U U54G C56A A83C C89U	-3.7
C11G C40U	-0.213
A41U C49U	-2.03
G58A C70G G120A U129A	-3.9
C13A C20U	-3.77
C40G C56U C88U G122U	-2.63
C40U C53U C72A C97U	-0.251
G48U U109G	-4.7
U9C G39A G63U	-1.02
C62G G71U C97A A119G	-4.38
C62A C104A G113A	-4.4
A37G G69A	-2.42
G47A C49A G60C G93A G113C G127U	-6.14
A74U C101U	-0.51
G39U G48A G61C	-2.96
G17C G120C	-1.58
U9A G10C U54A C86A G110U U125A	-3.13
C56U C94U G120C A121U G127U	0.202
G69U C85A C101A	-1.66
C40G G45A U78C G113U G135A	-4.25
G69C U106C	-1.22

Variant	polymerase ribozyme fitness (log ratio)
A74U U112A G113C A118C	-3.21
A2C G120C	-0.618
C70U C72G U92A A108U U112C G113A A121G	-6.12
C40U C53A G60A G69U	-0.0565
G69U U78G U112A U133C	3.16
G48C C62U	-2.91
C12U C34U	-3.06
C12G G35A A37U G63C	-5.96
C8U U14C A75U G120A	1.44
C34A C73A C85U U130A	-4.99
G93C U130C	-0.714
G25A C80A U92A U112A	-6.66
C22A G44U C62U U112G	-5.2
A75U C104A A121U C124U	0.403
G60C U116C	-1.73
G71U G110C	-3.69
G10A G42U G110A	-4
C53G A90C	-2.02
A2U C123A	-1.63
C80G A118U	-5.08
C12U U92C	-1.15

Variant	polymerase ribozyme fitness (log ratio)
G52A G60U C82A C88U A90G U116A U130A	-6.12
A5U A6U U7G C8U G36A A121C	0.985
G63U A95U C124U G135A	-0.147
A16C U109A U116G	-6.51
C49A G71C C98U	-2.91
C8U C13A C20A G113A C123G	-1.33
C8A C97A	-4.07
C28U C56G G57C	-2.34
G45A C73A G113U	-4.75
U7A G39A A50U C53G U130C	-4.47
C73U C101U G122A	-0.395
C15G A27C A41G C114U U116C	-7.35
U21A U38G U54C U59A	-1.06
C40G C85A	-2.32
A2U C73A G120C	-2.28
C70A G77C	-2.99
U7A G10C C72U	-0.8
C12U G63U A68C C123U	-4.7
C49A C89U U92C A95G U96A G113A U133A	-3.76
U9A C49U	-0.088
C3A C115U U125A U129G	-5.92

Variant	polymerase ribozyme fitness (log ratio)
C11U G39C U59C U81A A84G	-3.33
C3U C31G G120C	-6.61
C72G C115U	-1.03
C12G G63A	-0.827
C8G U87A U112G G113U C123U G127A	-3.6
U32C G48U	-1.13
A2U G61U	-1.84
C8U C101A U112A	1.32
U7A A27U A50U A74C C101U	-4.66
G35U G45A	-5.37
U106A C115U G127U	-1.18
G47U A111U	-3.66
C40U C53A C73A C104U C123G	1.24
G48A C56A	-1.1
G60A A95G C104A U132C	-2.06
U9G G39A C64U G93C C94G	-4.56
C40G C64U C85A U112C	-0.298
A6U G107U	-3.94
A43U C70G G117A	-6.87
A29U G47C A119G	-2.66
